Laboratory results reported in US7041458B2, “Methods and reagents for determining protein S” (priority 1996, dated 2006).

Assays:
protein S = biological target: T1, protein S (Homo sapiens, UniProt P07225); experiment: Binding of protein S to the binding site on C4BPβ in the presence of physiological calcium
T1 sequence (P07225 42-676): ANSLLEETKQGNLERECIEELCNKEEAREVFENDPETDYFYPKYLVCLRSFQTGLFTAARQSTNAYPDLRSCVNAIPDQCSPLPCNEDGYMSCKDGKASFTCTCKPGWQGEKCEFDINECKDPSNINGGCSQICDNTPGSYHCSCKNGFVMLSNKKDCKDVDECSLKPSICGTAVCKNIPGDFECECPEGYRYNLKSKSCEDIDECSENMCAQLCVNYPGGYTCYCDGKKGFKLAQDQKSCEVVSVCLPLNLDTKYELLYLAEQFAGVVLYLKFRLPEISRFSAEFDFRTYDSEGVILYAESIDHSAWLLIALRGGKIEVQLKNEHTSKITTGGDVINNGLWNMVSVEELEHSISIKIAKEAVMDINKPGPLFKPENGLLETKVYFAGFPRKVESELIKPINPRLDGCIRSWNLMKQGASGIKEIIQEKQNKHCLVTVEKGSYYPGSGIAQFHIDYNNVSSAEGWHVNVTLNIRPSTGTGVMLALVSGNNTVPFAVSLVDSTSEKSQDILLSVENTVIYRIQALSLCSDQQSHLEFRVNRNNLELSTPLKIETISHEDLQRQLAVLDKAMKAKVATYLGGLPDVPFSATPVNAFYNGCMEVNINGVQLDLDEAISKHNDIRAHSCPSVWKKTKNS
Procedure: Even though it is possible to design C4BP-like molecules which could be very efficient as catching ligands in assays for free protein S, suitable embodiments of the invention are based on use of the entire C4BP molecule or, rather, C4BP species comprising the β-chain, i.e. C4BPβ, as ligands in such assays. Since the binding site on C4BPβ binds protein S with very high affinity (KD=0.1 nM) in the presence of physiological calcium concentrations, the association rate constant in the presence of calcium ions being high (almost 10^5 M^−1 s−^1) and the dissociation rate constant being low (approximately 5×10^−4 s−^1), C4BPβ (containing an unoccupied protein S binding site on the β-chain) is a highly specific and efficient ligand for free protein S and is able to specifically bind to free protein S in a solution containing both free protein S and PS:C4BP complexes.

free protein S = biological target: T2, free protein S (Homo sapiens, UniProt P07225); experiment: Addition of C4BP to human plasma, free protein S measured with the assay of Example 2; assay type: binding; conditions: two-fold molar excess of C4BP compared to free protein S, 1 hour at 37° C.
T2 construct: from tissue; host or cells: human plasma
T2 sequence (P07225 42-676): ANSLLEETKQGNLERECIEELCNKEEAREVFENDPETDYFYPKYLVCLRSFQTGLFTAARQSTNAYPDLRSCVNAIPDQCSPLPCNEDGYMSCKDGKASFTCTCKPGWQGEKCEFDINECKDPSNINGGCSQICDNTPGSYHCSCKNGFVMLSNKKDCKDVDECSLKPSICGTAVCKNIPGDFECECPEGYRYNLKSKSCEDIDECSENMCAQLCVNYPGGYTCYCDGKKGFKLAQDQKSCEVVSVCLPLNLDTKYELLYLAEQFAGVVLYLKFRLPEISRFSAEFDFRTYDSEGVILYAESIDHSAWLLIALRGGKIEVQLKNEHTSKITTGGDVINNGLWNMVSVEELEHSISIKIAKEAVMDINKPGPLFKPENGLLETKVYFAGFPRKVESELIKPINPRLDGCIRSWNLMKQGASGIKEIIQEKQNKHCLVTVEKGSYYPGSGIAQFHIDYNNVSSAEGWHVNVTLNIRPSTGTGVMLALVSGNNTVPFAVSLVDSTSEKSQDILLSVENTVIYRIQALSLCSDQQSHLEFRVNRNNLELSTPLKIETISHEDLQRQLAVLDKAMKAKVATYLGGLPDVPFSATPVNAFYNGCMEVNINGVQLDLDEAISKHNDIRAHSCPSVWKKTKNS
Procedure: Assay procedure: Aliquots (50 μl) of the sample to be analyzed (for patient plasma usually 1:100 dilutions of plasma, the buffer for dilution being TBS containing 1% BSA, 2 mM calciumchloride and 1 mM benzamidine) were added to the wells of C4BP-microtiter plates and incubated at room temperature for 30 minutes. The wells were then washed with TBS-wash-ing buffer and biotinylated monoclonal antibody HPS54 (diluted 1:1000, corresponding to about 0.1–1 μg/ml, in TBS containing 1% BSA, 2 mM calcium chloride) was added. Unbound HPS54 was washed away with 3×TBS-washing buffer. Peroxidase-conjugated streptavidine (from Dakopatts AS and prepared according to the manufacturers instructions and diluted 1:2500) (50 μl/well) was added and incubated 15 minutes at room temperature before unbound complexes were washed away with 3×TBS-washing buffer. Aliquots (100 μl/well) of the peroxidase substrate OPD (1,2-ortho-phenylene diamine in the form of 2 mg tablets from Dakopatts A/S) at 1.5 mg/ml in 0.1 M citric acid-phosphate buffer, pH 5.0 (prepared according to instructions from Dakopatts) was added together with H2O2 (0.015%). After exactly 5 minutes, the reaction was stopped by 100 μl/well of 1 M H2SO4 and the absorbance was measured at 490 nm.
To test the specificity of the assay for free protein S, two different experiments were performed. […]

association rate constant (protein S; presence of calcium ions): ~10^5 M^−1 s−^1
dissociation rate constant (protein S; presence of calcium ions): approximately 5×10^−4 s−^1
Kd (protein S; presence of physiological calcium concentrations): 0.1 nM
drop in free protein S (free protein S): 90%
B1: C4BPβ: species of C4b-binding protein containing the protein S binding β-chain, isolated from human plasma (protein)
chain 1: NCGPPPTLSFAAPMDITLTETRFKTGTTLKYTCLPGYVRSHSTQTLTCNSDGEWVYNTFCIYKRCRHPGELRNGQVEIKTDLSFGSQIEFSCSEGFFLIGSTTSRCEVQDRGVGWSHPLPQCEIVKCKPPPDIRNGRHSGEENFYAYGFSVTYSCDPRFSLLGHASISCTVENETIGVWRPSPPTCEKITCRKPDVSHGEMVSGFGPIYNYKDTIVFKCQKGFVLRGSSVIHCDADSKWNPSPPACEPNSCINLPDIPHASWETYPRPTKEDVYVVGTVLRYRCHPGYKPTTDEPTTVICQKNLRWTPYQGCEALCCPEPKLNNGEITQHRKSRPANHCVYFYGDEISFSCHETSRFSAICQGDGTWSPRTPSCGDICNFPPKIAHGHYKQSSSYSFFKEEIIYECDKGYILVGQAKLSCSYSHWSAPAPQCKALCRKPELVNGRLSVDKDQYVEPENVTIQCDSGYGVVGPQSITCSGNRTWYPEVPKCEWETPEGCEQVLTGKRLMQCLPNPEDVKMALEVYKLSLEIEQLELQRDSARQSTLDKEL
chain 2: SDAEHCPELPPVDNSIFVAKEVEGQILGTYVCIKGYHLVGKKTLFCNASKEWDNTTTECRLGHCPDPVLVNGEFSSSGPVNVSDKITFMCNDHYILKGSNRSQCLEDHTWAPPFPICKSRDCDPPGNPVHGYFEGNNFTLGSTISYYCEDRYYLVGVQEQQCVDGEWSSALPVCKLIQEAPKPECEKALLAFQESKNLCEAMENFMQQLKESGMTMEELKYSLELKKAELKAKLL
